{"source": "patent CN113150127A", "binders": {"B1": {"name": "抗HBsAg单克隆抗体5G7-2 (antibody, V domains shown)", "VH": "EVQLQQSGPELVKPGASVKIYCKASGYTFTNARSTWVKQSHGKSLEWIGWINFKINNDGSATPFKGKATLTVDKSSSTAYMELRSLTSEDSAVYYCSRAGRFKLMDWGQGTLVTVSA", "VL": "DIVMTQSPASLAMSLGKRATISCGGCARTPLLWICNGKWYQQKPGQPPKLLIYLASNKFGGVPARFSGSGSGADFTLTIDPVEGDDVALYYCQQDWNTIYTFGGGTKMEIK"}}, "target": "HBV表面抗原蛋白 (HBsAg) (Hepatitis B virus)", "test": "SPR (Biacore 3000), antibody captured through AHC on a CM5 chip, HBsAg as analyte from 40 nM to 0 nM in 2-fold dilutions", "data": [{"binder": "B1", "values": [{"measurement": "Kd", "result": 6.12, "unit": "nM"}]}]}
